The values below come from article PMC10681739, “High-throughput data and modeling reveal insights into the mechanisms of cooperative DNA-binding by transcription factor proteins”.

The labels stand for the following.
B1: Table S3 B row 1562 (dsDNA)
DNA 1: CCACACCCACAAGGCCAGCCTCAATTCCTCACTCCT
DNA 2: AGGAGTGAGGAATTGAGGCTGGCCTTGTGGGTGTGG
B2: Table S3 B row 594 (dsDNA)
DNA 1: CCCCTCCCCACACCACAACAAACCTGATCCTTGCGC
DNA 2: GCGCAAGGATCAGGTTTGTTGTGGTGTGGGGAGGGG
B3: Table S3 B row 2476 (dsDNA)
DNA 1: CAGGTCACCGCAGTCCCCACCACTGCCTGTTATTGT
DNA 2: ACAATAACAGGCAGTGGTGGGGACTGCGGTGACCTG
B4: Table S3 C row 27 (dsDNA)
DNA 1: TGCGCCGCGCCCCGGGTTCCGGAATGCACTCTGAAC
DNA 2: GTTCAGAGTGCATTCCGGAACCCGGGGCGCGGCGCA
B5: Table S3 B row 3800 (dsDNA)
DNA 1: GACCCAGATACCACACCTACCCTGCTGCCTTTTCTA
DNA 2: TAGAAAAGGCAGCAGGGTAGGTGTGGTATCTGGGTC
B6: Table S3 B row 2805 (dsDNA)
DNA 1: AGCTTAATGCGGTTGGAGAACACCCTGTCTTATTGA
DNA 2: TCAATAAGACAGGGTGTTCTCCAACCGCATTAAGCT
B7: Table S3 B row 3020 (dsDNA)
DNA 1: TTTTATCGTCCGCGAGCCCTCATCCCACAACTCTTC
DNA 2: GAAGAGTTGTGGGATGAGGGCTCGCGGACGATAAAA
B8: Table S3 B row 2151 (dsDNA)
DNA 1: CTAAGGCTGTGGTTTGTACCCTAGCAGCAAAGGCAG
DNA 2: CTGCCTTTGCTGCTAGGGTACAAACCACAGCCTTAG
B9: Table S3 B row 3109 (dsDNA)
DNA 1: ACTCCACCTACCCACAAAACGCACTGCCTCAGAAGC
DNA 2: GCTTCTGAGGCAGTGCGTTTTGTGGGTAGGTGGAGT
B10: Table S3 C row 20 (dsDNA)
DNA 1: TACCTCTGTAACAGGTTTCCTGTCCCTGCCCAGCTT
DNA 2: AAGCTGGGCAGGGACAGGAAACCTGTTACAGAGGTA
B11: Table S3 B row 116 (dsDNA)
DNA 1: GTAGTTCCTTGTCTTTCCTTCTGCCGCCGCAGGCCT
DNA 2: AGGCCTGCGGCGGCAGAAGGAAAGACAAGGAACTAC
B12: Table S3 B row 1286 (dsDNA)
DNA 1: CCCAATTGCCTTTGCTCTGCTGTCTGCCAACCGCAA
DNA 2: TTGCGGTTGGCAGACAGCAGAGCAAAGGCAATTGGG
B13: Table S3 B row 232 (dsDNA)
DNA 1: TGTTGTGTGGTTTCAGAGATACGTCCTTGGGTTGCC
DNA 2: GGCAACCCAAGGACGTATCTCTGAAACCACACAACA
B14: Table S3 B row 1720 (dsDNA)
DNA 1: GCCTGCGGTGTGGACTCGCATCATGTCCTCTTTCTG
DNA 2: CAGAAAGAGGACATGATGCGAGTCCACACCGCAGGC
B15: Table S3 B row 3059 (dsDNA)
DNA 1: AGGCTGTGGTTATCTGCAAACAGCCCCCGTCCATCC
DNA 2: GGATGGACGGGGGCTGTTTGCAGATAACCACAGCCT
B16: Table S3 C row 100 (dsDNA)
DNA 1: TGGCTAGGGGCAGGGCTTCCGGCCTCGAACTTTAAC
DNA 2: GTTAAAGTTCGAGGCCGGAAGCCCTGCCCCTAGCCA
B17: Table S3 B row 808 (dsDNA)
DNA 1: TGTGTTAGTGGTTTTCTCTTACGGCAGGCAGTGGGC
DNA 2: GCCCACTGCCTGCCGTAAGAGAAAACCACTAACACA
B18: Table S3 C row 106 (dsDNA)
DNA 1: ACCAGGCGACGATGCCGGAACGCGCAAGTACGCGAG
DNA 2: CTCGCGTACTTGCGCGTTCCGGCATCGTCGCCTGGT
B19: Table S3 C row 101 (dsDNA)
DNA 1: AGTCAGAAGTTTCAGCGGAAATTGAAGCGCGGCCCT
DNA 2: AGGGCCGCGCTTCAATTTCCGCTGAAACTTCTGACT
B20: Table S3 C row 194 (dsDNA)
DNA 1: TGGGCAAGCCTTGGGCTTCCGGAGCCAAAAGGCCCA
DNA 2: TGGGCCTTTTGGCTCCGGAAGCCCAAGGCTTGCCCA
B21: Table S3 B row 736 (dsDNA)
DNA 1: CTCTGAACCGCATGATCTCTAAGACCACTTGCTGTT
DNA 2: AACAGCAAGTGGTCTTAGAGATCATGCGGTTCAGAG
B22: Table S3 C row 121 (dsDNA)
DNA 1: CACTCATTCCAGATCAGGAAGTGATCAGTGCCTCAA
DNA 2: TTGAGGCACTGATCACTTCCTGATCTGGAATGAGTG
B23: Table S3 B row 2568 (dsDNA)
DNA 1: GTCGCCTGCGGTGACTCAGCTCTTACGGTCACCGCC
DNA 2: GGCGGTGACCGTAAGAGCTGAGTCACCGCAGGCGAC
B24: Table S3 B row 1244 (dsDNA)
DNA 1: GGAACCCGCAGAAGCCCCGCCTCCCGTAAGCGGAGC
DNA 2: GCTCCGCTTACGGGAGGCGGGGCTTCTGCGGGTTCC
B25: Table S3 B row 1567 (dsDNA)
DNA 1: ACGGAGCTGTGGTTTAACGTTTCAGGTTCGTGGCTA
DNA 2: TAGCCACGAACCTGAAACGTTAAACCACAGCTCCGT
B26: Table S3 C row 70 (dsDNA)
DNA 1: GGCCGCGCCCAGACCCGGAAGCGGGGCCGTCACGTG
DNA 2: CACGTGACGGCCCCGCTTCCGGGTCTGGGCGCGGCC
B27: Table S3 B row 887 (dsDNA)
DNA 1: CACCCTGCCACCTCCCTAAACTCCCCGCACAGGCCG
DNA 2: CGGCCTGTGCGGGGAGTTTAGGGAGGTGGCAGGGTG
B28: Table S3 B row 1078 (dsDNA)
DNA 1: ATTTGTCACCAAACCACAGAGAGGACATGATTGTAA
DNA 2: TTACAATCATGTCCTCTCTGTGGTTTGGTGACAAAT
B29: Table S3 C row 8 (dsDNA)
DNA 1: GCCAGGCCGGCGGCGCGGAAGGTCTCCTGTGCCTGC
DNA 2: GCAGGCACAGGAGACCTTCCGCGCCGCCGGCCTGGC
B30: Table S3 C row 198 (dsDNA)
DNA 1: GGCAGCAGCCTTCGGCTTCCGCTTTTCGGCTTTCGC
DNA 2: GCGAAAGCCGAAAAGCGGAAGCCGAAGGCTGCTGCC

Sequence of RUNX1 (Q01196 whole entry): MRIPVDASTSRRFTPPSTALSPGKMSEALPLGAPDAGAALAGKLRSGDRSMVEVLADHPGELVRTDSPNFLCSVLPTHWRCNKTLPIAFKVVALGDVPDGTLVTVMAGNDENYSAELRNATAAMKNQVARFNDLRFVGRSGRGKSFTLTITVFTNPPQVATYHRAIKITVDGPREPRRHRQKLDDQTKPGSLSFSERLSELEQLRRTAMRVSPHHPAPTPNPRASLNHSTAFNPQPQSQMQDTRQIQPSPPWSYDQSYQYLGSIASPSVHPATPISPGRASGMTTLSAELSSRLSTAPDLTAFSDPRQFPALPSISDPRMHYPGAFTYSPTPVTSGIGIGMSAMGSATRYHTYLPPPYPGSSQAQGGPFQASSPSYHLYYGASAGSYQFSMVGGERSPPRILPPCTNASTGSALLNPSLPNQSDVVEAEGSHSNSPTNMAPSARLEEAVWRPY

This data set addresses RUNX1 (Homo sapiens, UniProt Q01196). Kind of data set: gcPBM; 2 nM RUNX1. The settings on record: tags: N-terminal GST (pDEST15), kept (PMC6008103); label: surface-attached array probe.
On to B1, for which the binding signal is 1900 PBM fluorescence, median of replicate spots.
The figure for B2 is 1700 PBM fluorescence, median of replicate spots; for B3 it is 1870 PBM fluorescence, median of replicate spots; for B4 it is 659 PBM fluorescence, median of replicate spots.
The figure for B5 is 1960 PBM fluorescence, median of replicate spots; for B6 it is 1930 PBM fluorescence, median of replicate spots.
The figure for B7 is 1790 PBM fluorescence, median of replicate spots; for B8 it is 2080 PBM fluorescence, median of replicate spots.
On to B9, for which the binding signal is 2010 PBM fluorescence, median of replicate spots.
Turning to B10, the binding signal is 673 PBM fluorescence, median of replicate spots.
The figure for B11 is 1720 PBM fluorescence, median of replicate spots; for B12 it is 1860 PBM fluorescence, median of replicate spots.
The figure for B13 is 1750 PBM fluorescence, median of replicate spots; for B14 it is 1680 PBM fluorescence, median of replicate spots; for B15 it is 1590 PBM fluorescence, median of replicate spots.
For the molecule B16, the binding signal was 688 PBM fluorescence, median of replicate spots.
For B17, the binding signal was 2040 PBM fluorescence, median of replicate spots.
For B18, the binding signal was 676 PBM fluorescence, median of replicate spots.
Regarding B19, the binding signal is 665 PBM fluorescence, median of replicate spots.
As for B20, the binding signal was 610 PBM fluorescence, median of replicate spots.
For B21 the value was 1820 PBM fluorescence, median of replicate spots; for B22, 680 PBM fluorescence, median of replicate spots; for B23, 1800 PBM fluorescence, median of replicate spots.
For B24 the value was 1640 PBM fluorescence, median of replicate spots; for B25, 1650 PBM fluorescence, median of replicate spots; for B26, 680 PBM fluorescence, median of replicate spots.
As for B27, the binding signal is 1620 PBM fluorescence, median of replicate spots.
Take B28: the binding signal was 1740 PBM fluorescence, median of replicate spots.
Turning to B29, the binding signal is 689 PBM fluorescence, median of replicate spots.
For B30 the value was 686 PBM fluorescence, median of replicate spots.
